In publication doi:10.1101/2020.03.03.974444 one finds percent reduction of FL-Dhh binding to Ptch1 data, which are given here for one substance.

This assay deals with myc-tagged human Patched-1 (Ptch1-1B-myc) (human) (UniProt Q13635). The assay is described as follows: co-IP.
UniProt Q13635, sequence (Q13635 whole entry): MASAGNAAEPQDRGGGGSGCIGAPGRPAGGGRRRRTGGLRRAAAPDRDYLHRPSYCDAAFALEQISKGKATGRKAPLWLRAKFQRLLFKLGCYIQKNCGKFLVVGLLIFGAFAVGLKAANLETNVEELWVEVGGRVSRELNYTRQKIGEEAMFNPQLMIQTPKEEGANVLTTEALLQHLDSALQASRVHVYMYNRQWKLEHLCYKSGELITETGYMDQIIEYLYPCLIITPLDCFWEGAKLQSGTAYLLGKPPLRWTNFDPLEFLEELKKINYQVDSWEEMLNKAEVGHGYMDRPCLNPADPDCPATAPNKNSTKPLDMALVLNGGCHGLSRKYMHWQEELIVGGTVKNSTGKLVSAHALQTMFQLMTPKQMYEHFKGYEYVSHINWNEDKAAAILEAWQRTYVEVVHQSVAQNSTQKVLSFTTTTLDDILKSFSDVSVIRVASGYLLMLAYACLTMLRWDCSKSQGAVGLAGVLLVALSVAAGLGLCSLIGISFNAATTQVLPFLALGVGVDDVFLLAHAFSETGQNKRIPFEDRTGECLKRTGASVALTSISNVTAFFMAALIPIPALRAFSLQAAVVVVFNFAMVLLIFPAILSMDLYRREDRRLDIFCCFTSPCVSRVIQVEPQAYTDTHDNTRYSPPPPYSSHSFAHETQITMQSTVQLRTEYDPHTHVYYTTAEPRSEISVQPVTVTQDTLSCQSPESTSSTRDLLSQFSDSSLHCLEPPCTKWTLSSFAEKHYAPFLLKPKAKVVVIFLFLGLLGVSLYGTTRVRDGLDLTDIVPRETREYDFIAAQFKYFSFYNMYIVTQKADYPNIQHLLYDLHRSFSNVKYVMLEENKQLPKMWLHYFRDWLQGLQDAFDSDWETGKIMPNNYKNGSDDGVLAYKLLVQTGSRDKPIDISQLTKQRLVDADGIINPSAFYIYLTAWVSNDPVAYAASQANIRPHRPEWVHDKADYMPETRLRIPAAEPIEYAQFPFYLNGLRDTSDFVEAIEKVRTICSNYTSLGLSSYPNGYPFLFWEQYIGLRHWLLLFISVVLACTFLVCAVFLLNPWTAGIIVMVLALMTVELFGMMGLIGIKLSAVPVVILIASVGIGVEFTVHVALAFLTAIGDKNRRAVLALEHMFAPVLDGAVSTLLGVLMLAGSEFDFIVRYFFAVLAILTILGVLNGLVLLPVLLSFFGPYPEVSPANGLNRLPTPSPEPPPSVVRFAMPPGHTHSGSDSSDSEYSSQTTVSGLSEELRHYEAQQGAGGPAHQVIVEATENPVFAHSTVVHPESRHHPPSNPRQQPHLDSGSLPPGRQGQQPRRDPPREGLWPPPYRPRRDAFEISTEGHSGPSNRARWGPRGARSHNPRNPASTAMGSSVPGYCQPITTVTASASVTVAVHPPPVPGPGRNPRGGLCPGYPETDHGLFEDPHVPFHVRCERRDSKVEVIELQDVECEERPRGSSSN

In turn, “N-terminal Sonic Hedgehog (N-Shh) (from UniProt Q62226 25-437) (domain or fragment)” yielded a percent reduction of FL-Dhh binding to Ptch1 of 70 to 80%.
